Data reported in IntAct's records for PubMed 24115911.

B1: Urease accessory protein UreF (Helicobacter pylori), Q09065 (parent)
chain: MDKGKSVKSTEKSVGMPPKTPKTDNNAHVDNEFLILQVNDAVFPIGSYTHSFGLETYIQQKKVTNKESALEYLKANLSSQFLYTEMLSLKLTYESALQQDLKKILGVEEVIMLSTSPMELRLANQKLGNRFIKTLQAMNELDMGEFFNAYAQKTKDPTHATSYGVFAASLGIELKKALRHYLYAQTSNMVINCVKSVPLSQNDGQKILLSLQSPFNQLIEKTLELDESHLCTASVQNDIKAMQHESLYSRLYMS

Variants of: B1
Conditions: with ureg_helpy ureG

Variant | effect of a mutation on the interaction
MDKGKSVKSTEKSVGMPPKTPKTDNNAHVDNEFLILQVNDAVFPIGSYTHSFGLETYIQQKKVTNKESALEYLKANLSSQFLYTEMLSLKLTYESALQQDLKKILGVEEVIMLSTSPMELRLANQKLGNRFIKTLQAMNELDMGEFFNAYAQKTKDPTHATSYGVFAASLGIELKKALAHYLDAQTSNMVINCVKSVPLSQNDGQKILLSLQSPFNQLIEKTLELDESHLCTASVQNDIKAMQHESLYSRLYMS [R179A;Y183D] | disrupting interaction strength
